Results from PMC5602538, “Assessment of the Drug Interaction Potential of Unconjugated and GalNAc3-Conjugated 2′-MOE-ASOs” (Molecular Therapy. Nucleic Acids, 2017).
{GalNAc3} = trishexylamino-C6 triantennary GalNAc conjugate; e = 2'-O-(2-methoxyethyl) (MOE); d = 2'-deoxy (DNA)

Key:
BSEP = test system: T1, BSEP; experiment: BSEP inhibition study in Sf9 membrane vesicles; format: in vitro ADME; settings: 100 μM ASO, 1 μM taurocholate
T1 construct: purchased Life Technologies; host or cells: Sf9 cells (membrane vesicles)
Experimental: The test system included a 96-well flat bottom plate containing a suspension of vesicles and a 96-well glass fiber filtration plate. Transport experiments were initiated with the addition of Mg-ATP (for ATP-dependent BSEP uptake) or AMP (non-ATP-dependent uptake) to appropriate wells. Preparation of the flat-bottom plates included incubation with blocking buffer for 60 min at 37°C with orbital shaking at 120 rpm. After 60 min, the blocking buffer was completely removed and assay uptake buffer solutions were added. For BSEP inhibition studies, solutions contained 1 μM [^3H]-taurocholic acid as a substrate and either assay vehicle, test article (at 100 μM), or reference inhibitor (300 μM rifampicin). For BSEP substrate studies, solutions contained either 1 μM [^3H]-taurocholic acid or 10 μM test article. […] These samples were counted using a 1450 Microbeta (Perkin-Elmer). […] The test article was quantitated by LC-MS.
Signal to noise for the BSEP probe substrate was calculated by dividing the uptake of the probe substrate in BSEP-expressing vesicles in the presence of ATP by the uptake of the BSEP substrate in the vesicles in the presence of AMP. Percent inhibition in the presence of the test article or the reference inhibitors was calculated as: %inhibition=100−(100×(ATP−dependent,transportor−mediatedaccumulation)withinhibitor/(ATP−dependent,transportor−mediatedaccumulation)withoutinhibitor).

CYP3A4 mRNA = CYP3A4 mRNA induction in plated human hepatocytes; settings: ASO 100 μM, human hepatocytes 72 hr, vs PBS 1% vehicle, mean ± SD of triplicate
Experimental: (§1) Upon receipt, sandwich-cultured cryopreserved human hepatocytes (with Matrigel) plated on collagen-coated 24-well plates were inspected under a microscope for general morphology and viability. Fresh culture medium (OptiCulture Hepatocyte Media) was added to each plate that passed the visual inspection. The plates were then placed in an incubator set to 37°C with 5% carbon dioxide (CO2) for overnight acclimation. […] During this time, cells in parallel wells were also treated with 50.0 μM omeprazole (inducer of CYP1A2), 1,000 μM phenobarbital (inducer of CYP2B6), or 10.0 μM rifampicin (inducer of CYP3A4) in triplicate, respectively.
(§2) After collection of the supernatant for catalytic analysis, the remaining cells were washed and lysed with QIAGEN Buffer RLT from the QIAGEN RNeasy Kit. […]
(§3) The activity of each CYP enzyme was measured by comparing the peak area ratio of the corresponding product to the peak area ratio of the internal standard. The fold induction was calculated by dividing the peak area ratio of each individual well from the treatment group by the mean of the peak area ratios obtained from the vehicle control wells. […] The ΔCƬ was calculated as follows: ΔCƬ = CƬ (CYP) − CƬ (GAPDH). […] The ΔΔCƬ was calculated as follows: ΔΔCƬ = Δ CƬ (Treatment) − Δ CƬ (Vehicle). The fold induction of the target CYP was calculated using the following equation: Fold=2^-ΔΔCT.

CYP2B6 = CYP2B6 enzyme activity induction in plated human hepatocytes; settings: ASO 100 μM, human hepatocytes 72 hr, vs PBS 1% vehicle, mean ± SD of triplicate
Experimental: as §1
The plates were then incubated at 37°C with 5% CO2 for 60 min. […] Aliquots of the supernatants were analyzed by LC-MS/MS for the formation of acetaminophen, hydroxyl-bupropion, or hydroxyl-midazolam as markers for enzyme activity of CYP1A2, CYP2B6, and CYP3A4, respectively.
as §3, with “The fold induction of the target CYP was calculated using the following equation: Fold=2^-ΔΔCT.” left out

CYP2B6 mRNA = CYP2B6 mRNA induction in plated human hepatocytes; settings: ASO 100 μM, human hepatocytes 72 hr, vs PBS 1% vehicle, mean ± SD of triplicate
Experimental: as §1, §2, §3

Substance | Enhancement of probe substrate uptake, BSEP (BSEP) | Fold induction of CYP3A4 mRNA (CYP3A4 mRNA) | Fold induction of CYP2B6 enzyme activity (CYP2B6) | Fold induction of CYP2B6 mRNA (CYP2B6 mRNA)
ISIS 304801: 20-mer (5-10-5) 2′-MOE gapmer PS backbone antisense inhibitor of apoC-III, sequence AGCTTCTTGTCCAGCTTTAT (sugars from the 5' end e5 d10 e5, all phosphorothioate, methylation of C not given here) | 21.0% |  |  | 
ISIS 681257: 20-mer 2′-MOE gapmer PS/PO mixed backbone ASO conjugated to 5′-trishexylamino GalNAc3, targets Lp(a), sequence TGCTCCGTTGGTGCTTGTTC (5' {GalNAc3}, sugars by position and backbone not given here; 2'-MOE gapmer with mixed PS/PO backbone) |  | 0.213 ± 0.0471 fold | 1.20 ± 0.389 fold | 1.36 ± 0.347 fold
